Experiments:
brox_human BROX [1] = target: brox_human BROX (UniProt Q5VW32)
brox_human BROX [2] = target: brox_human BROX (UniProt Q5VW32); remark: listed apart in the source

Chain of brox_human BROX (Q5VW32 whole entry): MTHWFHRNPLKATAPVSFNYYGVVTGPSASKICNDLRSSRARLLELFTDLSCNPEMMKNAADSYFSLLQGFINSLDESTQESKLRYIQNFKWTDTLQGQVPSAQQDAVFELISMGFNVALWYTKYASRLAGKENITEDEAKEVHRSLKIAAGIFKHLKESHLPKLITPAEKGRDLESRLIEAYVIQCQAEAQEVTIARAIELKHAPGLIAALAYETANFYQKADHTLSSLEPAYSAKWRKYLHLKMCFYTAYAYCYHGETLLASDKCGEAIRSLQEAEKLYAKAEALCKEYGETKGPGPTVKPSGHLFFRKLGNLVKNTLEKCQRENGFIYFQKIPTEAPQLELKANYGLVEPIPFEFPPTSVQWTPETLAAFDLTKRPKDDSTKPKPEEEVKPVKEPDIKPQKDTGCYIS
Chain of Charged multivesicular body protein 5 (Homo sapiens), Q9NZZ3-1 P214G (Q9NZZ3 whole entry P214G): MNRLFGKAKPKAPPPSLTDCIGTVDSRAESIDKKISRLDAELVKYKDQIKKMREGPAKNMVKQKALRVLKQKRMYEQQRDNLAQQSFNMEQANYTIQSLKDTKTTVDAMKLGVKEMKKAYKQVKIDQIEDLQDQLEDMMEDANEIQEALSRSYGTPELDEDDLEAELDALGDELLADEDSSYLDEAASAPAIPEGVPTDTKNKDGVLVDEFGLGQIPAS
Chain of Charged multivesicular body protein 5 (Homo sapiens), Q9NZZ3-1 F211A (Q9NZZ3 whole entry F211A): as the sequence (Q9NZZ3 whole entry P214G) above, with F211A, G214P counted along it
Chain of Charged multivesicular body protein 5 (Homo sapiens), Q9NZZ3-1 L213A (Q9NZZ3 whole entry L213A): as the sequence (Q9NZZ3 whole entry P214G) above, with L213A, G214P counted along it

Row | Substance | effect of a mutation on the interaction (brox_human BROX [1]) | effect of a mutation on the interaction (brox_human BROX [2])
1 | Charged multivesicular body protein 5 (Homo sapiens), Q9NZZ3-1 P214G | disrupting interaction strength | decreasing interaction strength
2 | Charged multivesicular body protein 5 (Homo sapiens), Q9NZZ3-1 F211A | disrupting interaction strength | decreasing interaction strength
3 | Charged multivesicular body protein 5 (Homo sapiens), Q9NZZ3-1 L213A |  | disrupting interaction strength
